Assay results as given in patent publication US20240052061A1 (published 2024).

T1: human ecto-nucleoside triphosphate diphosphohydrolase-3 (NTPDase3) (human, UniProt O75355 1-529)
T1 chain: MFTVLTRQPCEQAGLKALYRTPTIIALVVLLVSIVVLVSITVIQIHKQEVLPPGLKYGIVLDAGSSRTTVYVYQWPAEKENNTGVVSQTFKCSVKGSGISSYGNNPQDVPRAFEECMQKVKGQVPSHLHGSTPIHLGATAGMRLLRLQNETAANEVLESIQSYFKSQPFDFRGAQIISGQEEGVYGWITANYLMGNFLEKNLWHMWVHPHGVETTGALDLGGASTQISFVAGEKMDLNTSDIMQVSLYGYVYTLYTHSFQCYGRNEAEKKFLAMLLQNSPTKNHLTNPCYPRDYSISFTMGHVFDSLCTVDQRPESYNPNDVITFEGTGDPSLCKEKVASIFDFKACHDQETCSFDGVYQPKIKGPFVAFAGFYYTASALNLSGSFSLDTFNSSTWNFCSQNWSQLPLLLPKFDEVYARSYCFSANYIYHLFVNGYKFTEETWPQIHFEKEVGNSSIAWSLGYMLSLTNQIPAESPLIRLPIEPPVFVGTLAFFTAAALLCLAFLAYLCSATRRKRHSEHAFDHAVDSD


How the values were obtained:
[1] = target: T1, human ecto-nucleoside triphosphate …; assay: flow cytometry; HEK293T-hENTPD3 cells
[2] = target: T1, human ecto-nucleoside triphosphate …; assay: flow cytometry; CHO-hENTPD3 cells
[3] = target: T1, human ecto-nucleoside triphosphate …; assay: flow cytometry; HEK293T-hENTPD3 cells
[4] = target: T1, human ecto-nucleoside triphosphate …; assay: flow cytometry; COS7-hENTPD3 cells
[5] = target: T1, human ecto-nucleoside triphosphate …; assay: flow cytometry; CHO-hENTPD3 cells
[6] = target: T1, human ecto-nucleoside triphosphate …; assay: flow cytometry; COS7-hENTPD3 cells
[7] = target: T1, human ecto-nucleoside triphosphate …; assay: flow cytometry; CHO-hENTPD3 cells, 2h at 37°C
[8] = target: T1, human ecto-nucleoside triphosphate …; assay: flow cytometry; CHO-hENTPD3 cells, 20 min at 4°C
[9] = target: T1, human ecto-nucleoside triphosphate …; assay: flow cytometry; HEK293T-hENTPD3 cells
[10] = target: T1, human ecto-nucleoside triphosphate …; assay: flow cytometry; COS7-hENTPD3 cells
[11] = target: T1, human ecto-nucleoside triphosphate …; assay: flow cytometry; RT4 cells
[12] = target: T1, human ecto-nucleoside triphosphate …; assay: flow cytometry; CHO-hENTPD3 cells
r3E9 = assay: flow cytometry; RT4 cells; rabbit mAb

Kd [1]	Kd [2]	Kd [3]	Kd [4]	Kd [5]	Kd [6]	Kd [7]	Kd [8]	Kd [9]	Kd [10]	Kd [11]	Kd [12]	Kd (r3E9)	Binder
6.56 nM	26.6 nM	2.22 nM	1.93 nM	1.11 nM	0.96 nM	2.54 nM	22.3 nM						38D5 Hu/Ra (antibody, V domains shown) VH: QELVESGGGLVQPGGSLKLSCKASGIDFNNYGISWVRQAPGKGLEWIAYKYPGFGIRNYANSVKGRFTISSDNAQNTVFLQMTSLAASDTATYFCARGARYRHDDYGALNLWGPGTLVTVSS VL: DIVMTQTPPSVSAAVGGTVTINCQASQSVTNLLAWYQQKPGQPPKLLIYGASNLESGVPSRFRGSGSGTEFTLTISGMKAEDAATYYCQSGYYSANTFGAGTKVGIKR
	1.59 nM	0.33 nM	0.54 nM			1.02 nM	1.82 nM	2.76 nM	0.31 nM	0.06 nM	0.43 nM		8E1 Hu/Ra (antibody, V domains shown) VH: QSVEESGGRLVTPGTPLTLTCTVSGFSLSSYAMGWVRQAPGKGLEFIGIISYSGNTYYASWAKGRFPISKTSSTTVDLKMTSPTTEDTANYFCARARYGGYSTNSYYLNIWGPGTLVTVSS VL: DVVMTQTPASVEAAVGGTVTINCQASENIYRVLAWYQQKPGQRPKLLIYGASNLESGVPSRFKGSGSGTDYTLTISDLECDDAATYYCQGVVYNSDDSAFGGGTEVVVKG
												0.22 nM	hENTPD3 (RT4 cells) (enzyme) MFTVLTRQPCEQAGLKALYRTPTIIALVVLLVSIVVLVSITVIQIHKQEVLPPGLKYGIVLDAGSSRTTVYVYQWPAEKENNTGVVSQTFKCSVKGSGISSYGNNPQDVPRAFEECMQKVKGQVPSHLHGSTPIHLGATAGMRLLRLQNETAANEVLESIQSYFKSQPFDFRGAQIISGQEEGVYGWITANYLMGNFLEKNLWHMWVHPHGVETTGALDLGGASTQISFVAGEKMDLNTSDIMQVSLYGYVYTLYTHSFQCYGRNEAEKKFLAMLLQNSPTKNHLTNPCYPRDYSISFTMGHVFDSLCTVDQRPESYNPNDVITFEGTGDPSLCKEKVASIFDFKACHDQETCSFDGVYQPKIKGPFVAFAGFYYTASALNLSGSFSLDTFNSSTWNFCSQNWSQLPLLLPKFDEVYARSYCFSANYIYHLFVNGYKFTEETWPQIHFEKEVGNSSIAWSLGYMLSLTNQIPAESPLIRLPIEPPVFVGTLAFFTAAALLCLAFLAYLCSATRRKRHSEHAFDHAVDSD
